Experimental data from patent US20210017226A1, “METHOD OF GENERATING INTERACTING PEPTIDES” (Peption, LLC, priority 2017, published 2021).
Ends that are not written are not given here.

Legend:
[1] = target: T1, PTD12 (Sp-C9_CAA813-821), synthetic Cas9 target peptide […] (Streptococcus pyogenes); test: dot blot densitometry
[2] = target: T1, PTD12 (Sp-C9_CAA813-821), synthetic …; test: dot blot densitometry, same amount of purified proteins

B1: C9-813-CAA4 (tetramer, parallel-linker-antiparallel-linker-parallel-linker-antiparallel), recombinan (designed binder)
chain: MHHHHHHLLSVEVQQLCYPENLEYLFIEKLRSEAEGNGTIDFELLQVDVILLKTGEVNNLEQIKIRLF
fold stronger interaction than the monomers (C9-813-92P, C9-813-93P) [1]: 1.5 fold

MHHHHHHELLLSVEVQQLCYPENLEYLFIEKL (designed binder, not shown: small tags and cut ends; large carriers) [C9-813-CAA2 (dimer, parallel-linker-antiparallel), recombinant CAAP oligopeptide-AP fusion protein]
fold stronger interaction than C9-813-92P or C9-813-93P (monomers) [2]: 2.5 fold | fold stronger interaction than C9-813-CAA4 (tetramer) [2]: 1.5 fold

LLQVDVILLCYPENLEQIKIRLFGSGSHHHHHH (designed binder, also: dimer) [PTD14 (Sp-C9_CAA813-821PAPH), synthetic His-tagged CAAP oligopeptide dimer]
fold stronger interaction than the monomer PTD13 [1]: 2 fold | fold stronger interaction than the sAb monomer PTD13 [1]: 2 fold
